Data reported in publication PMC4822050 (2016).

Experiments:
[1] = molecular target: T1, TTD of UHRF1 (residues 134–285) (human, UniProt Q96T88 134-285); experiment: ITC; in presence of SRA
T1 chain: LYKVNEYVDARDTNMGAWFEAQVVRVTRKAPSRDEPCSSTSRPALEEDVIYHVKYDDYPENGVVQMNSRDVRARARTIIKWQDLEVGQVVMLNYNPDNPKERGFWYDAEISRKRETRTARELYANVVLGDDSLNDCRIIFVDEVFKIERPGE

[2] = molecular target: T2, R295D/R296D mutant of full-length UHRF1 (human, UniProt Q96T88 1-793, R295D | R296D); experiment: ITC
T2 sequence: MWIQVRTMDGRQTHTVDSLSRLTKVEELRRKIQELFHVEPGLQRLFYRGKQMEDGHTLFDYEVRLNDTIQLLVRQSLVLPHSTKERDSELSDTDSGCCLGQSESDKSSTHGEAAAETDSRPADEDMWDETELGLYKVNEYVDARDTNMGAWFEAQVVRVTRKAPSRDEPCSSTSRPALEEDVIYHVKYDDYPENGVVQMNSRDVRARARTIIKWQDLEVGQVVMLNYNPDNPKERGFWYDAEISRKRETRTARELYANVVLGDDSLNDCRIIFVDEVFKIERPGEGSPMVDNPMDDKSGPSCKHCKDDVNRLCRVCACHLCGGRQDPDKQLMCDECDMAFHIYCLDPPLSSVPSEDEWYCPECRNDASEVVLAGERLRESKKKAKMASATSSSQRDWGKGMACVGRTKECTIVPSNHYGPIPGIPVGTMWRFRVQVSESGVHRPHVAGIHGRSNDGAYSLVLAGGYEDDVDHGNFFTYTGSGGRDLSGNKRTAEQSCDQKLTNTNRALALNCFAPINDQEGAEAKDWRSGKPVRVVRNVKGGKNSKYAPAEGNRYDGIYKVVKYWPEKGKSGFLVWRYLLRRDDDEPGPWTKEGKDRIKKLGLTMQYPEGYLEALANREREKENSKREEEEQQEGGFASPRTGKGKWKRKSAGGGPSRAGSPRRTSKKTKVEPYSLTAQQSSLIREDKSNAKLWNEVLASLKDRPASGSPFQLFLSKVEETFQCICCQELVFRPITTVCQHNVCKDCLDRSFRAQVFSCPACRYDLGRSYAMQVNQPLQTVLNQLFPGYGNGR

[3] = molecular target: T3, TTD–PHD of UHRF1 (residues 134–366) (human, UniProt Q96T88 134-366); experiment: ITC; in presence of Spacer (1:2)
T3 chain: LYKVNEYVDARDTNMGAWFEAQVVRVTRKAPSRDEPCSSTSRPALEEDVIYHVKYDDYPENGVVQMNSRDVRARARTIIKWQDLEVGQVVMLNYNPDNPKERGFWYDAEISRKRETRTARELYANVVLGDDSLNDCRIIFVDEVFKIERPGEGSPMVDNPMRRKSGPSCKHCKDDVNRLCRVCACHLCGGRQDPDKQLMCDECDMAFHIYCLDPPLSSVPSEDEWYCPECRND

[4] = molecular target: T1, TTD of UHRF1 (residues 134–285); experiment: ITC; in presence of Spacer S651D (1:2)
[5] = molecular target: T1, TTD of UHRF1 (residues 134–285); experiment: ITC; in presence of Spacer K648D (1:2)
[6] = molecular target: T1, TTD of UHRF1 (residues 134–285); experiment: ITC; in presence of Spacer R649A (1:2)
[7] = molecular target: T4, UHRF1^Δ627–674 (human, UniProt Q96T88 1-793, Δ627–674); experiment: ITC
T4 sequence: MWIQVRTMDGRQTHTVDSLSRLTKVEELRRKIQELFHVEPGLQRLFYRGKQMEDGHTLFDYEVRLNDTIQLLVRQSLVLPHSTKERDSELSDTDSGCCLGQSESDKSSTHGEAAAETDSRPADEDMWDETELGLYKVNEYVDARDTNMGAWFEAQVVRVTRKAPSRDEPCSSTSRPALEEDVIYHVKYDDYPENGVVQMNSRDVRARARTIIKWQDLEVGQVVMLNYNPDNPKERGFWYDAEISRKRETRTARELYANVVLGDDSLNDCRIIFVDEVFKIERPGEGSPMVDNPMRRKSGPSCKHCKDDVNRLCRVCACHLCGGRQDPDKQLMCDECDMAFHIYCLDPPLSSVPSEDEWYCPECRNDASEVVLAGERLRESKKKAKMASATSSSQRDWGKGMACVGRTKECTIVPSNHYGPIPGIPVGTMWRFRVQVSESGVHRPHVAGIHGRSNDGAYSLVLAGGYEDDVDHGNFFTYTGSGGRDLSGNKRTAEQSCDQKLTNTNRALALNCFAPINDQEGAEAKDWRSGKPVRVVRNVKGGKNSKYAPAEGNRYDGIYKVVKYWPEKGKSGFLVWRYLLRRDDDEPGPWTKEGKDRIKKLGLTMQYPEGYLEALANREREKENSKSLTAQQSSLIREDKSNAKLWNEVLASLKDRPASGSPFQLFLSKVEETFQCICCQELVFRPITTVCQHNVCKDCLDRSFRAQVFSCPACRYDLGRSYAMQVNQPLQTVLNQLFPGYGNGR

[8] = molecular target: T1, TTD of UHRF1 (residues 134–285); experiment: ITC
[9] = molecular target: T3, TTD–PHD of UHRF1 (residues 134–366); experiment: ITC; in presence of Spacer (TTD-PHD/Spacer 1:2)
[10] = molecular target: T5, PHD of UHRF1 (residues 307–366) (human, UniProt Q96T88 307-366); experiment: ITC; in presence of SRA (1:2)
T5 chain: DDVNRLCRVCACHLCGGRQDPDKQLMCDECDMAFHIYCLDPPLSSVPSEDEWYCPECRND

[11] = molecular target: T5, PHD of UHRF1 (residues 307–366); experiment: ITC
[12] = molecular target: T5, PHD of UHRF1 (residues 307–366); experiment: ITC; in presence of SRA (1:1)
[13] = molecular target: T5, PHD of UHRF1 (residues 307–366); experiment: ITC; in presence of SRA (PHD/SRA 1:1)
[14] = molecular target: T5, PHD of UHRF1 (residues 307–366); experiment: ITC; in presence of SRA (PHD/SRA 1:2)
[15] = molecular target: T6, PHD-SRA of UHRF1 (human); experiment: ITC
T6 chain: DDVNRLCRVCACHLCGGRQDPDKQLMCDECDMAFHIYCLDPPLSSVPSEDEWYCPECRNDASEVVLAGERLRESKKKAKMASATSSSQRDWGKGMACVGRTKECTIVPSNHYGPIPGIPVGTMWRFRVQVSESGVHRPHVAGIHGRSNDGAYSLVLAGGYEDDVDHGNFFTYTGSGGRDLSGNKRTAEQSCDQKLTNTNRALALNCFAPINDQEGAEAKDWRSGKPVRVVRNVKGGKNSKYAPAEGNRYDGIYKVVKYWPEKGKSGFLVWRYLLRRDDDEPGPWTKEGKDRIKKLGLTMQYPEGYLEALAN

B1: H3K9me3 peptide (1–17) (peptide)
peptide: ARTKQTARKSTGGKAPR
modifications: trimethyl-lysine at K9
Kd [1]: 880 nM
Kd [2]: 36800 nM
Kd [3]: 1630 nM
Kd [4]: 1280 nM
Kd [5]: 6580 nM
Kd [6]: 2890 nM
Kd [7]: 1190 nM
Kd [8]: 990 nM
Kd [9]: 1630 nM

B2: H3 peptide (1–17) (peptide)
peptide: ARTKQTARKSTGGKAPR
Kd [10]: 4640 nM
Kd [11]: 770 nM
Kd [12]: 2040 nM
Kd [13]: 2040 nM
Kd [14]: 4640 nM
Kd [15]: 5790 nM
